Experiment [1] concerns the target T1, PD-1 His protein (Beijing Sino Biological Inc.) (UniProt Q15116 25-167, limits assumed).
T1 construct: Bought reagent, analyte in the Biacore assay; not shown: His tag
As to the kind of experiment: Biacore SPR, antibody coupled to CM5 chip, PD-1 His as analyte, 1:1 model. As for the experimental part:
According to the instruction of a kit provided by Biacore, the test PD-1 antibody of the present invention was covalently linked to CM5 (GE) chip using a standard amino coupling method. Then a series of gradient concentrations of PD-1 His protein (Beijing Sino Biological Inc.), which were diluted in the same buffer, were loaded into each cycle successively. After that, the samples were regenerated with regenerated reagent in the kit. The antigen-antibody binding kinetics was tracked for 3 minutes and the dissociation kinetics was tracked for 10 minutes. The data obtained was analyzed by GE's BIAevaluation software using 1:1 (Langmuir) binding model.

Experiment [2] addresses T2, recombinant PD-1 extracellular domain Fc fusion protein (PD-1 Fc) (human, biotin label (sites not given) in the ELISA binding assay; unlabelled when coated in the ligand blocking assay).
T2 construct: also called human PD-1Fc; human PD-1
The experiment is described as follows: ligand binding blocking ELISA: PD-1-FC coated, competitor biotin-labeled PD-L1. As for the experimental part: In this experiment, a 96-well plate was coated with a PD-1 protein with the extracellular domain fused with FC (PD-1-FC), and incubated with the test PD-1 antibody; later biotin-labeled PD-L1 was added for incubation. After washing the plate, the binding amount of biotin-labeled PD-L1 was detected; the blocking IC₅₀ value of PD-1 antibody for ligand PD-L1 binding was calculated.
PD-1-FC was diluted to 1 μg/ml with PH 9.6 CB buffer (1.59 g Na₂CO₃ and 2.93 g NaHCO₃ were dissolved in 1 L of distilled water), pipetted into a 96-well plate at 100 μl/well and standed for 16 h-20 h at 4° C. The 96-well plate was washed once with PBST (PH7.4 PBS, containing 0.05% tweeen20) after PBS buffer was removed, then the plate was incubated and blocked for 1 h at room temperature with 120 μl/well PBST/1% milk. After removal of the blocking solution, the plate was washed with PBST buffer once, followed by addition of 90 μl of test PD-1 antibody which was diluted to a suitable concentration with sample diluents (PH7.4 PBS containing 5% BSA, 0.05% Tween20), and incubated for 1 h at 4° C. […] The absorbance value at 450 nm was read on the NOVOStar microplate reader; the blocking IC₅₀ value of PD-1 for ligand PD-L1 binding was calculated.

B1: murine monoclonal antibody mAb005 (antibody, V domains shown)
VH: EVMLVESGGGLVKPGGSLKLSCAASGFTFSSYMMSWVRQTPEKRLEWVATISGGGANTYYPDSVKGRFTISRDNAKNTLYLQMSSLRSEDTALYYCARQLYYFDYWGQGTTLTVSS
VL: DIQMTQSPASQSASLGEGVTITCLASQTIGTWLTWYQQKPGKSPQLLIYTATSLADGVPSRFSGSGSGTKFSFKISSLQAEDFVTYYCQQVYSIPWTFGGGTKLEIK
notes: Murine monoclonal antibody from a hybridoma; also called PD-1 antibody mAb005
In the case of B1, in experiment [1], the dissociation constant (Kd) stood at 3.57 nM, the koff was 0.000377 s⁻¹ and the association rate constant (kon) is 106000 M⁻¹ s⁻¹. Moreover, the half-inhibitory concentration (IC50) in experiment [2] is 1.13 nM.

Values taken from patent US20190309069A1 (SHANGHAI HENGRUI PHARMACEUTICAL, published 2019).
